# Assay results taken from PMC7934869 (JCI Insight, 2021).
# What was measured:
# [1] = biological target: T1, recombinant Plasmodium falciparum circumsporozoite protein (rPfCSP) (Plasmodium falciparum 3D7, UniProt Q7K740); assay: BLI; Octet RED384; rPfCSP on the sensor, purified IgG at 2, 1, 0.5, 0.25, 0.125 ug/mL; 1:1 model; apparent affinity; conditions: both partners purified
# T1 construct: full-length circumsporozoite (CS) protein of 3D7, a clone of the NF54 strain of P. falciparum; also called CS protein
# [2] = biological target: T1, recombinant Plasmodium falciparum …; assay: BLI; Octet RED384; rPfCSP on the sensor, mouse serum 8 weeks after AAV administration with the mAb at 2, 1, 0.5, 0.25, 0.125 ug/mL; 1:1 model; apparent affinity; conditions: one partner purified
# T1 sequence (Q7K740 19-374): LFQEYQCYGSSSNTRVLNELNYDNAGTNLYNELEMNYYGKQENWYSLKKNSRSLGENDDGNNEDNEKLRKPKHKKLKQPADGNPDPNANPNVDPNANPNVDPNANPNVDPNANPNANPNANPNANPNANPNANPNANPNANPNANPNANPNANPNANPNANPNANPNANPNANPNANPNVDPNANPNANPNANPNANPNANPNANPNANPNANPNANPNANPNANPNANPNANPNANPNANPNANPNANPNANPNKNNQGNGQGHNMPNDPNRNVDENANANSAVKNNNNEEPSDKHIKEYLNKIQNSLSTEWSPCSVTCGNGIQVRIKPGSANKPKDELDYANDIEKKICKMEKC
Binder,Kd [1] [nM],Kd [2] [nM]
"CIS43 human monoclonal antibody (antibody, V domains shown, the secreted chain begins at QVQLVQ; light chain of CIS43; IgG1 by the printed constant region; also called rCIS43; CIS43 IgG; source: Expi293 (GenScript) or CHO cells, purified (protein-A column; Superdex200 before BLI)) VH: QVQLVQSGAEVKKPGASVKVSCKASGYTFTSYAIHWVRQAPGQRLEWMGWIKAGNGNTRYSQKFQDRVTITRDTSTTTAYMELSSLRSEDTAVYYCALLTVLTPDDAFDIWGQGTMVTVSS VL: not shown",5,
"CIS43 expressed in vivo from an AAV vector (CIS43-AAV), in mouse serum (antibody, V domains shown, synthesised and cloned into the VIP vector; human IgG1 heavy chain constant region of the VIP expression vector; light chain variable region of CIS43, as in the light chain of Dm1; human kappa light chain constant region of the VIP expression vector; Heavy and light chain are made from one transcript, separated by an F2A self-processing peptide; also called AAV-expressed CIS43; source: expressed …) VH: QVQLVQSGAEVKKPGASVKVSCKASGYTFTSYAIHWVRQAPGQRLEWMGWIKAGNGNTRYSQKFQDRVTITRDTSTTTAYMELSSLRSEDTAVYYCALLTVLTPDDAFDIWGQGTMVTVSS VL: not shown",,2.3
